Source: PMC6310800, “Exploiting correlated molecular-dynamics networks to counteract enzyme activity–stability trade-off” (Proceedings of the National Academy of Sciences of the …, 2018)
Numbering of substitutions follows the chain as printed. In names and notes the source's numbering stands.

B1: transketolase (TK) (Escherichia coli K-12; A282P/D469T/G506A/H192P/I365L/R520Q/S385Y) (protein)
chain: MSSRKELANAIRALSMDAVQKAKSGHPGAPMGMADIAEVLWRDFLKHNPQNPSWADRDRFVLSNGHGSMLIYSLLHLTGYDLPMEELKNFRQLHSKTPGHPEVGYTAGVETTTGPLGQGIANAVGMAIAEKTLAAQFNRPGHDIVDHYTYAFMGDGCMMEGISHEVCSLAGTLKLGKLIAFYDDNGISIDGPVEGWFTDDTAMRFEAYGWHVIRDIDGHDAASIKRAVEEARAVTDKPSLLMCKTIIGFGSPNKAGTHDSHGAPLGDAEIALTREQLGWKYPPFEIPSEIYAQWDAKEAGQAKESAWNEKFAAYAKAYPQEAAEFTRRMKGEMPSDFDAKAKEFIAKLQANPAKIASRKASQNALEAFGPLLPEFLGGSADLAPYNLTLWSGSKAINEDAAGNYIHYGVREFGMTAIANGISLHGGFLPYTSTFLMFVEYARNAVRMAALMKQRQVMVYTHDSIGLGETGPTHQPVEQVASLRVTPNMSTWRPCDQVESAVAWKYAVERQDGPTALILSQQNLAQQERTEEQLANIARGGYVLKDCAGQPELIFIATGSEVELAVAAYEKLTAEGVKARVVSMPSTDAFDKQDAAYRESVLPKAVTARVAVEAGIADYWYKYVGLNGAIVGMTTFGESAPAELLFEEFGFTVDNVVAKAKELL
notes: recombinant from plasmid pQR791, purified; homodimer
B2: transketolase (TK) (Escherichia coli K-12; D469T/R520Q/S385Y) (protein)
chain: B1 chain with P192H, P282A, L365I, A506G
notes: as for B1
B3: transketolase (TK) (Escherichia coli K-12; A282P/D469T/G506A/H192P/R520Q/S385Y) (protein)
chain: B1 chain with L365I
notes: as for B1
B4: transketolase (TK) (Escherichia coli K-12; A282P/D469T/H192P/R520Q/S385Y) (protein)
chain: B1 chain with L365I, A506G
notes: as for B1
B5: transketolase (TK) (Escherichia coli K-12; D469T/H192P/R520Q/S385Y) (protein)
chain: B1 chain with P282A, L365I, A506G
notes: as for B1
B6: transketolase (TK) (Escherichia coli K-12; A282P/D469T/H192P/I365L/R520Q/S385Y) (protein)
chain: B1 chain with A506G
notes: as for B1
B7: transketolase (TK) (Escherichia coli K-12; A282P/D469T/R520Q/S385Y) (protein)
chain: B1 chain with P192H, L365I, A506G
notes: as for B1

Each protein was assayed on O=Cc1cccc(C(=O)O)c1 (assay: initial rates by HPLC, Michaelis-Menten fit). Conditions: 50 mM Li-hydroxypyruvate, 50 mM Tris-HCl pH 7.0, 2.4 mM ThDP, 9 mM MgCl2, 22 °C.
Assay type: biochemical, Escherichia coli
Text: initial rates by HPLC, Michaelis-Menten fit on transketolase (TK)
For B1, the Km was 2.3 (0.3) mM, the kcat was 3.8 s⁻¹ and the kcat/Km was 1650 M⁻¹ s⁻¹. B2 was tested, and the Km was 2.3 (0.3) mM, the kcat was 2.8 s⁻¹ and the kcat/Km was 1220 M⁻¹ s⁻¹. With B3 the Km was 2.7 (0.4) mM, the kcat was 3.9 s⁻¹ and the kcat/Km was 1440 M⁻¹ s⁻¹. With B4 the Km was 1.3 (0.2) mM, the kcat was 2.9 s⁻¹ and the kcat/Km was 2230 M⁻¹ s⁻¹. With B5 the Km was 2.2 (0.4) mM, the kcat was 3.5 s⁻¹ and the kcat/Km was 1590 M⁻¹ s⁻¹. With B6 the Km was 1.3 (0.4) mM, the kcat was 2.1 s⁻¹ and the kcat/Km was 1620 M⁻¹ s⁻¹. B7 was tested, and the Km was 2.1 (0.2) mM, the kcat was 3.2 s⁻¹ and the kcat/Km was 1520 M⁻¹ s⁻¹.
